Columns and labels:
[1] = molecular target: T1, mono- and di-methylated lysine peptides (H4K20, p53K382 and other histone and non-histone peptides) (Homo sapiens, UniProt Q9Y468); test: Peptide pull-down assay with biotinylated peptides, Western blot; format: binding
T1 construct: made in house; host or cells: E. coli
T1 sequence (Q9Y468 258-598): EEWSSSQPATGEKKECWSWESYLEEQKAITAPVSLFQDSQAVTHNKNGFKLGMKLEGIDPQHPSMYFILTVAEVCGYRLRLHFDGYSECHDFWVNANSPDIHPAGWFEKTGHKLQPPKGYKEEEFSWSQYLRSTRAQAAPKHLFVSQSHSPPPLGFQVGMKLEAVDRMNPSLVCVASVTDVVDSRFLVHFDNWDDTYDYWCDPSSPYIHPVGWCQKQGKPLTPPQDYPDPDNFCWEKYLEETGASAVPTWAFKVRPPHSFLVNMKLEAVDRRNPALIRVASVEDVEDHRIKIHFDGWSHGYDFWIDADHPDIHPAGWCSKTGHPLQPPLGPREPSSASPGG
Protocol: (§1) Peptide pull-down assays were performed as previously described (Shi et al. (2006) Nature 442, 96-99), using 1 μg protein and 1 μg peptide per condition in binding buffer (50 mM Tris pH 7.5, 150 mM NaCl, 0.05% NP-40). Peptide arrays were performed as previously described (Bua et al., supra).

[2] = test system: mono- and di-methylated lysine peptides (H4K20, p53K382 and other histone and non-histone peptides); test: as above; format: binding; settings: GST fusions, FIG. 1B
Protocol: as §1

[3] = molecular target: T2, over 100 distinct histone and non-histone peptides with different post-translational modifications (Homo sapiens, UniProt Q9Y468); test: Peptide array probed with GST-3×MBT; format: binding; settings: FIG. 1E
T2 construct: made in house; host or cells: E. coli
T2 sequence (Q9Y468 258-598): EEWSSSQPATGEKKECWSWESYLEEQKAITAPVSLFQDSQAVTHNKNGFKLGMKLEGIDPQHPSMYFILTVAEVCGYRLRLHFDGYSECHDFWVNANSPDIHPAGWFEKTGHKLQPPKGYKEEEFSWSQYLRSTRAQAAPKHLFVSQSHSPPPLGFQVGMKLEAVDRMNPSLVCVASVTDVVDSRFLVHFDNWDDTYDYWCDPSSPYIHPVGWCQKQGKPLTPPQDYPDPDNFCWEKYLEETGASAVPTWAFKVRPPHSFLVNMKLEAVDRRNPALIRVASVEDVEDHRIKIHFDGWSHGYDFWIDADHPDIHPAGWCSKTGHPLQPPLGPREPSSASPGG
Protocol: as §1

[4] = test system: methylated proteins (H3, p53, RelA, SIRT1) in HeLa / 293T nuclear extract; test: Protein pull-down from nuclear extract with GSH-Sepharose coupled domain, Western blot; format: binding
Protocol: GSH-Sepharose coupled domain beads were generated for pull-down by incubating GSHSepharose resin with E. coli lysate containing sufficient 3×MBT for bead saturation. Bead-coupled 3×MBT was incubated with nuclear extract overnight and proteins that precipitated with the resin were analyzed by SDS-PAGE.
Recombinant GST-SIRT1 was expressed by baculoviral transduction of the Sf9 insect cell line as previously described (Levy et al. (2011) Nat. Immunol. 12, 29-36). A panel of enzymes was tested for ability to methylate recombinant SIRT1 using ^3H-SAM in in vitro methylation reactions (Kuo et al. (2011) Mol. Cell 44, 609-620). SIRT1K622R was generated by site-directed mutagenesis (Stratagene). For the pull-down experiment, 293T cells were transfected with a 10:1 enzyme:substrate DNA ratio. 150 μg of nuclear proteins were used for pull-downs with 3×MBT or 3×MBTD355N coupled GSH-Sepharose as described above.
GSH-Sepharose coupled domain beads were prepared for pull-down by expressing the domain in E. coli. Cells were lysed as described, and lysate was incubated overnight at 4° C. with GSH-Sepharose with a sufficient lysate-to-Sepharose ratio to result in Sepharose binding saturation. The GSH-Sepharose was then washed 3×5 minutes in binding buffer and resuspended in binding buffer to 50% slurry. 150 μg of nuclear proteins were incubated overnight at 4° C. with 15 μl 50% slurry of either 3×MBT or 3×MBTD355N coupled to GSH-Sepharose in binding buffer (total volume of about 150 μl). Beads were washed 3×5 minutes in 0.5 ml of binding buffer. Beads were boiled in 25 μl of 2× Laemmli buffer and supernatant was analyzed by SDS-PAGE and Western blotting.
For SETD6/RelA and SET8/p53 pull-down experiments, 293T cells were transfected with a 1:1 enzyme:substrate DNA ratio. 150 μg of nuclear proteins were incubated overnight at 4° C. with 15 μl 50% slurry of either 3×MBT or 3×MBTD355N coupled to GSH-Sepharose in binding buffer. […] Laemmli buffer was added to the supernatant to 1×, and the resulting samples analyzed by SDS-PAGE and Western blotting.

[5] = molecular target: T3, G9a SET domain (Homo sapiens, UniProt Q96KQ7); test: ProtoArray on-chip in vitro methylation, detected with 3xFlag-3xMBT; format: biochemical; settings: ProtoArrays bearing 9,500 recombinant human proteins
T3 construct: 50 μg of GST or recombinant GSTtagged G9a SET domain and the cofactor SAM
Protocol: The assay was conducted as previously described (Levy et al. (2011) Epigenetics Chromatin 4, 19). Briefly, a ProtoArray (Invitrogen, version 5.0) was incubated overnight with 50 μg of GST or recombinant GSTtagged G9a SET domain and the cofactor SAM.
Arrays were analyzed using GenePix Pro 6.1 software (Molecular Devices) and feature values were assigned to proteins using the array list provided by Invitrogen. We designated the following criteria for “hits”: GST array signal-to-noise ratio (SNR) less than or equal to 1.5, G9a array SNR greater than or equal to 10, and a difference between the G9a array SNR and the GST array SNR of greater than or equal to 12. Hits were individually visually validated. Proteins were removed from the list of potential substrates if irregular array features appeared to interfere with the array spots or SNR calculations.

T3 sequence (Q96KQ7 1038-1155 limits assumed): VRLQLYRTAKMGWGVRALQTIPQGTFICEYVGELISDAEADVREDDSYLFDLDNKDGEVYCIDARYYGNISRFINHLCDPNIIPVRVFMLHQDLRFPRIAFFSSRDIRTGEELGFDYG

B1: 3×MBT: three MBT repeats of L3MBTL1 (amino acids 190-530 of accession NP—056293.4), expressed as GST or Flag fusion; methyl-lysine affinity reagent (protein)
chain: EEWSSSQPATGEKKECWSWESYLEEQKAITAPVSLFQDSQAVTHNKNGFKLGMKLEGIDPQHPSMYFILTVAEVCGYRLRLHFDGYSECHDFWVNANSPDIHPAGWFEKTGHKLQPPKGYKEEEFSWSQYLRSTRAQAAPKHLFVSQSHSPPPLGFQVGMKLEAVDRMNPSLVCVASVTDVVDSRFLVHFDNWDDTYDYWCDPSSPYIHPVGWCQKQGKPLTPPQDYPDPDNFCWEKYLEETGASAVPTWAFKVRPPHSFLVNMKLEAVDRRNPALIRVASVEDVEDHRIKIHFDGWSHGYDFWIDADHPDIHPAGWCSKTGHPLQPPLGPREPSSASPGG
modifications: left off: a dimerising Fc or GST
[1]; FIG. 1D
  binding to non-methylated peptides: does not bind
  binding to tri-methylated peptides: binds very weakly
[1]; FIG. 2E
  effect of acetylation of a neighboring lysine and phosphorylation of an N-terminally adjacent serine on binding: did not affect
[1]; FIGS. 2A and 2B
  effect of phosphorylation on a C-terminally adjacent serine on binding to mono- or di-methylated lysine: decreased, but did not eliminate
[1]; FIGS. 2C and 2D
  effect of arginine methylation one or two residues removed from the lysine methylation site on binding: little effect
[1]; histone and nonhistone peptides, FIG. 1C
  co-precipitation with panel of mono- and di-methylated peptides: co-precipitates with thirteen different mono- and di-methylated peptides
[2]
  binding to mono- and di-methylated H4K20- and p53K382-containing peptides: binds
[3]
  binding to unmodified peptides, tri-methylated lysine peptides or peptides with other PTMs on peptide array: did not bind
[3]; array of over 100 unique peptides
  number of peptides containing mono- and di-methylated lysine bound on peptide array: 41
[4]; 293T cells, only when G9a is co-expressed and K622 is intact
  precipitation of 3× Flag-SIRT1: specifically precipitated
[4]; HeLa nuclear extract
  precipitation of methylated proteins H3 and p53: precipitates
[4]; nuclear extract of 293T cells co-expressing SETD6 and RelA
  precipitation of methylated RelA: precipitates
[5]
  number of proteins detected on the G9a-methylated array but not on the control array: 112

Source: patent US20140274782A1, “AFFINITY REAGENTS AND METHODS FOR DETECTION, PURIFICATION, AND PROTEOMIC ANALYSIS OF METHYLATED PROTEINS” (The Board of Trustees of the Leland Stanford Junior …, priority 2013, published 2014)
